The chains are these.
B1: D. melanogaster augmin N-clamp with Dgt6^3A-mut (K82A, R88A, K96A) (complex)
chain 1: MSDAVDKMLAGMAANRQTMNRQLAKIDEIMERSNNTLLHIESNSKAFSQNVALSETQKMYNLRPEAEMTLSKILENFKLLMSSSDQREETYSALEGCLAYRHRVEHLGSSVRKLVALYDTVGQMKNSQEEQYASEDSP
chain 2: MDRTIIAPWKAEEKEQSEKLHRKLQGLALVHPLPDELRKLIAWDMFLKPNQVAFVHVMHYLFRLLDPAEFKRRFFWPITDKASEANFASSTVEYLAHLNEKHQLHWANIKSYLVVMPGGMRFINFLLEFVGFVIQELIKQREKSLGLEAGTPNVSAKVMARQNAVMKEYASSYVVNLEENTALLRDKTQKIRRLMADLSADMGVPEEQLADDGFLDEFEATAALGVERVITQPTERKFDLEASLCGLKEAIDLFQVKQAENNQSKEAVEKALRGMRVLFDCDAVTEGDFYDPLGASKMDALLNGFNRISGTIAEQLDANDHYNESNAFVTTDLQALRVELSQSEVQLNNLLKKLNEPSKKDKGSANASGSARVQTLQPATPRFESVISSKFVSTPPIRIDMGGGGGRNAPVRLALQDDFNGKQFDALSNSLLAPAPPRSARKLKALDQSTGIDLNGTLNRSKINDPMQMLRTIHKNTSKVKAAPQANLSSLGSKWKQMQASFGFDEAPVPGAAVISPQTSPTDPSDPFTPLSGSECTRIERIPRTSENNTSLIAKSAAVIKVLEVSRNVLNLSTSPSGRLDALVPHTESHQQDVAPRLQLNDRTINDSLQLDPDFNIENDKNAFNVSHKFDFDQIGGEDDLQNISDSVLKDIIF
chain 3: METNVDFSSISSKLYRKYAQHVRNLKDVCVSKTVMKPGAFFDSLQQMMEEEAAATTPPRDLSSVADYAELFKTLEEYPANLQKMPKKRELQRTNSTLLRGADESVAMGINTSNVSLSLTRLEEQRSAVDVYNDFKGFQRKLAKIYDEAAALDTTESIYKQKLTQLHGFAQQLEKLMPTGGESPPDAFTSEQQEKLLTIAANMEQLNYLRSNSLQLPNPNEILATGSLAARLEMFVEVLTYTLLQVSSYNMAMI
chain 4: METPPTPTTTTPPSLTTEGTMDDIQYLLHLEAMRRFQEDSRNVKRQVEEQVRIWLDAKCEYQRDFGRLARLLKCGALQAAVDAHRVSDVNQVDQAAKDIASLRSKLGSDLRPAILDSNDVKQCLEHLNTTHKPRLNLCRQQREFAQNQEALRSLRTAVDGLENGMEMGMIQAMDRLVEDLLPPRETNN
B2: D. melanogaster augmin N-clamp with Msd5^Δ81–93 (loop deletion) (complex)
chain 1: MSDAVDKMLAGMAANRQTMNRQLAKIDEIMERSNNTLLHIESNSKAFSQNVALSETQKMYNLRPEAEMTLSKILENFKLLMSSSDQREETYSALEGCLAYRHRVEHLGSSVRKLVALYDTVGQMKNSQEEQYASEDSP
chain 2: MDRTIIAPWKAEEKEQSEKLHRKLQGLALVHPLPDELRKLIAWDMFLKPNQVAFVHVMHYLFRLLDPAEFKRRFFWPITDKKSEANFRSSTVEYLKHLNEKHQLHWANIKSYLVVMPGGMRFINFLLEFVGFVIQELIKQREKSLGLEAGTPNVSAKVMARQNAVMKEYASSYVVNLEENTALLRDKTQKIRRLMADLSADMGVPEEQLADDGFLDEFEATAALGVERVITQPTERKFDLEASLCGLKEAIDLFQVKQAENNQSKEAVEKALRGMRVLFDCDAVTEGDFYDPLGASKMDALLNGFNRISGTIAEQLDANDHYNESNAFVTTDLQALRVELSQSEVQLNNLLKKLNEPSKKDKGSANASGSARVQTLQPATPRFESVISSKFVSTPPIRIDMGGGGGRNAPVRLALQDDFNGKQFDALSNSLLAPAPPRSARKLKALDQSTGIDLNGTLNRSKINDPMQMLRTIHKNTSKVKAAPQANLSSLGSKWKQMQASFGFDEAPVPGAAVISPQTSPTDPSDPFTPLSGSECTRIERIPRTSENNTSLIAKSAAVIKVLEVSRNVLNLSTSPSGRLDALVPHTESHQQDVAPRLQLNDRTINDSLQLDPDFNIENDKNAFNVSHKFDFDQIGGEDDLQNISDSVLKDIIF
chain 3: METNVDFSSISSKLYRKYAQHVRNLKDVCVSKTVMKPGAFFDSLQQMMEEEAAATTPPRDLSSVADYAELFKTLEEYPANNSTLLRGADESVAMGINTSNVSLSLTRLEEQRSAVDVYNDFKGFQRKLAKIYDEAAALDTTESIYKQKLTQLHGFAQQLEKLMPTGGESPPDAFTSEQQEKLLTIAANMEQLNYLRSNSLQLPNPNEILATGSLAARLEMFVEVLTYTLLQVSSYNMAMI
chain 4: METPPTPTTTTPPSLTTEGTMDDIQYLLHLEAMRRFQEDSRNVKRQVEEQVRIWLDAKCEYQRDFGRLARLLKCGALQAAVDAHRVSDVNQVDQAAKDIASLRSKLGSDLRPAILDSNDVKQCLEHLNTTHKPRLNLCRQQREFAQNQEALRSLRTAVDGLENGMEMGMIQAMDRLVEDLLPPRETNN
B3: D. melanogaster augmin N-clamp, wild type (Msd1, Dgt6, Msd5-EGFP-HIS8, Dgt4-HIS8) (complex)
chain 1: MSDAVDKMLAGMAANRQTMNRQLAKIDEIMERSNNTLLHIESNSKAFSQNVALSETQKMYNLRPEAEMTLSKILENFKLLMSSSDQREETYSALEGCLAYRHRVEHLGSSVRKLVALYDTVGQMKNSQEEQYASEDSP
chain 2: MDRTIIAPWKAEEKEQSEKLHRKLQGLALVHPLPDELRKLIAWDMFLKPNQVAFVHVMHYLFRLLDPAEFKRRFFWPITDKKSEANFRSSTVEYLKHLNEKHQLHWANIKSYLVVMPGGMRFINFLLEFVGFVIQELIKQREKSLGLEAGTPNVSAKVMARQNAVMKEYASSYVVNLEENTALLRDKTQKIRRLMADLSADMGVPEEQLADDGFLDEFEATAALGVERVITQPTERKFDLEASLCGLKEAIDLFQVKQAENNQSKEAVEKALRGMRVLFDCDAVTEGDFYDPLGASKMDALLNGFNRISGTIAEQLDANDHYNESNAFVTTDLQALRVELSQSEVQLNNLLKKLNEPSKKDKGSANASGSARVQTLQPATPRFESVISSKFVSTPPIRIDMGGGGGRNAPVRLALQDDFNGKQFDALSNSLLAPAPPRSARKLKALDQSTGIDLNGTLNRSKINDPMQMLRTIHKNTSKVKAAPQANLSSLGSKWKQMQASFGFDEAPVPGAAVISPQTSPTDPSDPFTPLSGSECTRIERIPRTSENNTSLIAKSAAVIKVLEVSRNVLNLSTSPSGRLDALVPHTESHQQDVAPRLQLNDRTINDSLQLDPDFNIENDKNAFNVSHKFDFDQIGGEDDLQNISDSVLKDIIF
chain 3: METNVDFSSISSKLYRKYAQHVRNLKDVCVSKTVMKPGAFFDSLQQMMEEEAAATTPPRDLSSVADYAELFKTLEEYPANLQKMPKKRELQRTNSTLLRGADESVAMGINTSNVSLSLTRLEEQRSAVDVYNDFKGFQRKLAKIYDEAAALDTTESIYKQKLTQLHGFAQQLEKLMPTGGESPPDAFTSEQQEKLLTIAANMEQLNYLRSNSLQLPNPNEILATGSLAARLEMFVEVLTYTLLQVSSYNMAMI
chain 4: METPPTPTTTTPPSLTTEGTMDDIQYLLHLEAMRRFQEDSRNVKRQVEEQVRIWLDAKCEYQRDFGRLARLLKCGALQAAVDAHRVSDVNQVDQAAKDIASLRSKLGSDLRPAILDSNDVKQCLEHLNTTHKPRLNLCRQQREFAQNQEALRSLRTAVDGLENGMEMGMIQAMDRLVEDLLPPRETNN

The assay deals with Taxol-stabilized microtubules polymerised from purified porcine brain tubulin (porcine) (UniProt P02550). The assay is described as follows: co-sedimentation; tubulin co-sedimentation: taxol-stabilized MTs (varied, α/β-tubulin heterodimer molarity) with 1 µM purified N-clamp, 0.25 mg/ml BSA, BRB80-MT buffer (80 mM PIPES, 1 mM MgCl2, 1 mM EGTA, 12.5% glycerol, pH 6.8), 20 min at room temperature, 200,000 g 10 min 27 °C; SDS-PAGE densitometry of pellet; apparent Kd from a quadratic fit.
Take B1: the Kd came to 25500 nM.

As for B2, the Kd came out at 1000 nM.

For the molecule B3, the Kd stood at 400 nM.

(Values after article PMC12373997.)
